This is an account of results in patent US20210206855A1 (ADAGENE, published 2021).

The term EC50 denotes the concentration giving half of the maximal effect.

Experiment [1] addresses T1, cynomolgus monkey CTLA4 antigen fused with human FC fragment (cynomolgus monkey, UniProt G7PL88 36-161, fused to a human Fc fragment that is not in the letters).
T1 sequence: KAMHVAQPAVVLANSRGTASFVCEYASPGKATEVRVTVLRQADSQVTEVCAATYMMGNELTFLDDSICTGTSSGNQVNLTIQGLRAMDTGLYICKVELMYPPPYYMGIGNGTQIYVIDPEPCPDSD
Put plainly: ELISA, captured Fab. In general terms: In an ELISA, binding on a coated surface is turned into a signal by an enzyme label.

For experiment [2], the target named is T2, recombinant human CTLA4 fused with human Fc and His tag (human, UniProt P16410 37-162, limits assumed, biotinylated where used in solution).
T2 construct: also called biotinylated human CTLA4 fused with human FC and His tag; recombinant human CTLA4 proteins; not shown: human Fc and His tag
T2 sequence (looked up): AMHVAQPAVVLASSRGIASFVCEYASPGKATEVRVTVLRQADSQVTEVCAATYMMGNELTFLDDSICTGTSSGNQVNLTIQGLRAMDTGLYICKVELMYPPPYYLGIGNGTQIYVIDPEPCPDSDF
Kind of experiment: competition ELISA: plate-bound human CTLA4-Fc-His, biotinylated human CD80 as the blocked ligand, HRP-neutravidin. How it is done: Plates were blocked with PBS supplemented with 2% (w/v) skim milk at 37° C. for 1 hour. […] Plates were washed four times, and 100 μL HRP-neutravidin (1:1000) was added to each well and incubated at 37° C. for 1 hour. Plates were washed as previously described, and 50 μL TMB substrate solution was added and incubated at room temperature for 5 minutes before the reaction was stopped by 50 μL sulfate acid (2M).

Experiment [3] deals with T3, canine CTLA4 fused with His tag (canine, UniProt Q9XSI1 36-162, limits assumed).
T3 construct: soluble protein; also called dog CTLA4; not shown: His tag
T3 sequence (looked up): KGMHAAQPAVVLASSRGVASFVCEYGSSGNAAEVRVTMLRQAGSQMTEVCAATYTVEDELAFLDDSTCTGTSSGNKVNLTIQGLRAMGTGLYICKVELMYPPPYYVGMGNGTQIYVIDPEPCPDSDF
Kind of experiment: ELISA, coated canine CTLA4-His. How it is done:
(§1) The ability of certain IgG antibodies to bind to soluble human (FIG. 1A, Table 5A) or canine (FIG. 1B, Table 5B) CTLA4 was next tested. 1 μg/mL human CTLA4 fused with human FC fragment, or canine CTLA4 fused with His tag, were prepared and used to coat an ELISA plate at 2-8° C. overnight. After blocking, 100 μL serial diluted IgG antibodies were added and incubated at 37° C. for 1 hour. Plates were washed for four times and then incubated with HRP-anti human IgG (Fab specific) (1:6000 dilution) at 37° C. for 1 hour. Plates were washed again four times and incubated with TMB substrate for 15 minutes at room temperature. […] The data was analyzed by Graphpad Prism 6 with nonlinear fitting.

Experiment [4] deals with T4, recombinant human CTLA4-Fc (Sino Biological, 11159-H03H) (human, UniProt P16410 37-162).
T4 construct: bought; whole entry named; Biotinylated in the yeast display assays; also called human CTLA4 fused with human FC fragment; biotinylated CTLA4-Fc; not shown: human Fc fragment
T4 sequence (looked up): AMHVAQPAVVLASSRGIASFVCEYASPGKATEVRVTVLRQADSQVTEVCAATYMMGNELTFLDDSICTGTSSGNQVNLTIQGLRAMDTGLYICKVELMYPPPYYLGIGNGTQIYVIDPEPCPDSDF
Put plainly: ELISA, coated human CTLA4-Fc. How it is done: as §1

In experiment [5] the target is T4, recombinant human CTLA4-Fc (Sino …). Put plainly: ELISA, coated human CTLA4-Fc, batch 2. How it is done:
(§2) Plates were blocked with PBS supplemented with 3% non-fat milk at 37° C. for 1 hour. After washing, 100 μL of 3-fold serial dilutions of antibodies were added to each well. After incubation at 37° C. for 1 hour, plates were washed four times, and […] conjugated anti-human IgG (Fab specific) (1:6000 dilution) was added to each well. Plates were incubated at 37° C. for 1 hour, washed four times, and then 50 μL TMB substrate solution was added to each well, and the plate was incubated at room temperature. […] The EC₅₀ was evaluated by fitting the ELISA data using the asymmetrical sigmoidal (five-parameter logistic equation) model of GraphPad Prism 6 software.

The target is the same in experiment [6]. Put plainly: ELISA, coated human CTLA4-Fc (as Example 8). How it is done: as §2
Experiment [7] has the same target. Put plainly: ELISA, coated human CTLA4-Fc (as Example 8). How it is done: as §2
The source holds these as a separate data set.

For experiment [8] the target is unchanged. Kind of experiment: ELISA, coated human CTLA4-Fc, batch 1. How it is done:
as §2

B1: B15740 (Fab, V domains shown)
VH: EVQLVESGGGLVQPGGSLRLSCAASGFTFSDYWIHWVRQAPGKGLEWIGWISPSGGGTKYAQKFQGRVTISRDNSKNTLYLQLNSLRAEDTAVYYCARGAYEFDYWGQGTLVTVSS
VL: DIQLTQSPSSLSASVGDRVTITCRASQSVSSRFLAWYQQKPGKAPKLLIYDASNRATGIPSRFSGSGSGTDFTLTISSLQPEDFATYYCQQSYPTPLTFGQGTKVEIKR
notes: Fab hit from E. coli
As for B1, the binding result in experiment [1] was “binds”.

B2: TY21687 (antibody, V domains shown)
VH: EVQLVESGGGLVQPGGSLRLSCAASGFTFSGYAIHWVRQAPGKGLEWIGIISPSGGGTKYAQKFQGRVTISRDNSKNTLYLQLNSLRAEDTAVYYCARHPFAYWGQGTLVTVSS
VL: DIQLTQSPSSLSASVGDRVTITCRASQSVDFYGISFLDWYQQKPGKAPKLLIYDASNRATGIPSRFSGSGSGTDFTLTISSLQPEDFATYYCQQYVSSPPEYTFGQGTKVEIK
Consider B2, for which, in experiment [2], the “IC50 (read off the curve)” value is roughly 40 nM. Also, the LogEC50 in experiment [3] was -9.13 log M; in experiment [4] it was -9.49 log M.

B3: TY21585 (antibody, V domains shown)
VH: EVQLVESGGGLVQPGGSLRLSCAASGFTFSDYAIHWVRQAPGKGLEWIGIISPSSGSTNYAQKFQGRVTISRDNSKNTLYLQLNSLRAEDTAVYYCARDIHSGSSGYYYGFDVWGQGTLVTVSS
VL: DIQLTQSPSSLSASVGDRVTITCRASESVDFFGISFLAWYQQKPGKAPKLLIYDASNRATGIPSRFSGSGSGTDFTLTISSLQPEDFATYYCQHYTSSPPVYTFGQGTKVEIK
Regarding B3, the “IC50 (read off the curve)” value in experiment [2] was roughly 20 nM. The results for the LogEC50 in experiment [3] and in experiment [4] were -8.22 log M and -9.26 log M, respectively.

B4: TY21591 (antibody, V domains shown)
VH: EVQLVESGGGLVQPGGSLRLSCAASGFSLSTGGVAVSWIRQAPGKGLEWIGEIYHSGSTYYSPSLKSRVTISRDNSKNTLYLQLNSLRAEDTAVYYCARRIATATYFDYWGQGTLVTVSS
VL: DIQLTQSPSSLSASVGDRVTITCRASQTVFSRYLAWYQQKPGKAPKLLIYDASNRATGIPSRFSGSGSGTDFTLTISSLQPEDFATYYCQQSYYWPPWTFGQGTKVEIK
Turning to B4, the LogEC50 in experiment [3] was -9.15 log M; in experiment [4], -9.08 log M.

B5: B15722 (Fab, V domains shown)
VH: EVQLVESGGGLVQPGGSLRLSCAASGFTFSDYGIHWVRQAPGKGLEWIGEIYHSGSTYYSPSLKSRVTISRDNSKNTLYLQLNSLRAEDTAVYYCARDVAPGSSGYYDGFDFWGQGTLVTVSS
VL: DIQLTQSPSSLSASVGDRVTITCRASQGIGSSLAWYQQKPGKAPKLLIYDASNRATGIPSRFSGSGSGTDFTLTISSLQPEDFATYYCQQYDQWPPWTFGQGTKVEIKR
notes: Fab hit from E. coli
B5: the binding result in experiment [1] is reported as “binds”.

B6: TY22566 (antibody, IgG1, V domains shown)
VH: EVQLVESGGGLVQPGGSLRLSCAASGYSISSGYHWSWIRQAPGKGLEWLARIDWDDDKYYSTSLKSRLTISRDNSKNTLYLQLNSLRAEDTAVYYCARSYVYFDYWGQGTLVTVSS
VL: EVGSYPNPASDCVPYYYACAYSGRSAGGGGSPLGLAGSGGSDIQLTQSPSSLSASVGDRVTITCRASQSVRGRFLAWYQQKPGKAPKLLIYDASNRATGIPSRFSGSGSGTDFTLTISSLQPEDFATYYCQQSSSWPPTFGQGTKVEIKR
With B6, in experiment [5], the EC50 stood at 163 nM and the LogEC50 was -6.79 log M.

B7: TY22564 (antibody, IgG1, V domains shown)
VH: EVQLVESGGGLVQPGGSLRLSCAASGYSISSGYHWSWIRQAPGKGLEWLARIDWDDDKYYSTSLKSRLTISRDNSKNTLYLQLNSLRAEDTAVYYCARSYVYFDYWGQGTLVTVSS
VL: EVGSYYSAYPACDSHYPYCNSAGRSAGGGGSPLGLAGSGGSDIQLTQSPSSLSASVGDRVTITCRASQSVRGRFLAWYQQKPGKAPKLLIYDASNRATGIPSRFSGSGSGTDFTLTISSLQPEDFATYYCQQSSSWPPTFGQGTKVEIKR
As for B7, in experiment [5], the EC50 worked out at 39 nM and the LogEC50 was -7.41 log M.

B8: TY22563 (antibody, IgG1, V domains shown)
VH: EVQLVESGGGLVQPGGSLRLSCAASGYSISSGYHWSWIRQAPGKGLEWLARIDWDDDKYYSTSLKSRLTISRDNSKNTLYLQLNSLRAEDTAVYYCARSYVYFDYWGQGTLVTVSS
VL: EVGSYYSAYPACDSHYPYCQSSGRSAGGGGSPLGLAGSGGSDIQLTQSPSSLSASVGDRVTITCRASQSVRGRFLAWYQQKPGKAPKLLIYDASNRATGIPSRFSGSGSGTDFTLTISSLQPEDFATYYCQQSSSWPPTFGQGTKVEIKR
For the molecule B8, in experiment [5], the EC50 came to 47.7 nM and the LogEC50 is -7.32 log M.

B9: TY22402 (peptide as listed in Table 26) (antibody, V domains shown)
VH: EVQLVESGGGLVQPGGSLRLSCAASGYSISSGYHWSWIRQAPGKGLEWLARIDWDDDKYYSTSLKSRLTISRDNSKNTLYLQLNSLRAEDTAVYYCARSYVYFDYWGQGTLVTVSS
VL: EVGSYIVHHSDCDAFYPYCDSSGRSAGGGGTPLGLAGSGGSDIQLTQSPSSLSASVGDRVTITCRASQSVRGRFLAWYQQKPGKAPKLLIYDASNRATGIPSRFSGSGSGTDFTLTISSLQPEDFATYYCQQSSSWPPTFGQGTKVEIKR
notes: kept apart from m66
With B9, the concentration for a half-maximal effect (EC50) in experiment [6] worked out at 54 nM; in experiment [7] it was 116 nM.

B10: TY22565 (antibody, IgG1, V domains shown)
VH: EVQLVESGGGLVQPGGSLRLSCAASGYSISSGYHWSWIRQAPGKGLEWLARIDWDDDKYYSTSLKSRLTISRDNSKNTLYLQLNSLRAEDTAVYYCARSYVYFDYWGQGTLVTVSS
VL: EVGSYPQPSSDCVPYYYACAYSGRSAGGGGSPLGLAGSGGSDIQLTQSPSSLSASVGDRVTITCRASQSVRGRFLAWYQQKPGKAPKLLIYDASNRATGIPSRFSGSGSGTDFTLTISSLQPEDFATYYCQQSSSWPPTFGQGTKVEIKR
With B10, in experiment [5], the half-maximal effective concentration (EC50) was found to be 210 nM and the LogEC50 is -6.68 log M.

B11: TY22401 (antibody, V domains shown)
VH: EVQLVESGGGLVQPGGSLRLSCAASGYSISSGYHWSWIRQAPGKGLEWLARIDWDDDKYYSTSLKSRLTISRDNSKNTLYLQLNSLRAEDTAVYYCARSYVYFDYWGQGTLVTVSS
VL: EVGSYNFVADSCPDHPYPCSASGRSAGGGGSPLGLAGSGGSDIQLTQSPSSLSASVGDRVTITCRASQSVRGRFLAWYQQKPGKAPKLLIYDASNRATGIPSRFSGSGSGTDFTLTISSLQPEDFATYYCQQSSSWPPTFGQGTKVEIKR
notes: peptide fused to the N-terminus of the light chain; also called masking peptide B13189
Consider B11, for which, in experiment [8], the EC50 was 23.8 nM and the LogEC50 was -7.62 log M. In addition, in experiment [5], the EC50 came to 15.9 nM and the LogEC50 is -7.8 log M.

B12: TY22402 (antibody, IgG1, V domains shown)
VH: EVQLVESGGGLVQPGGSLRLSCAASGYSISSGYHWSWIRQAPGKGLEWLARIDWDDDKYYSTSLKSRLTISRDNSKNTLYLQLNSLRAEDTAVYYCARSYVYFDYWGQGTLVTVSS
VL: EVGSYIVHHSDCDAFYPYCDSSGRSAGGGGSPLGLAGSGGSDIQLTQSPSSLSASVGDRVTITCRASQSVRGRFLAWYQQKPGKAPKLLIYDASNRATGIPSRFSGSGSGTDFTLTISSLQPEDFATYYCQQSSSWPPTFGQGTKVEIKR
notes: also called masking peptide B13180
In the case of B12, in experiment [8], the EC50 amounted to 478 nM and the LogEC50 was -6.32 log M. Also, in experiment [5], the concentration giving a half-maximal response (EC50) came to 125 nM and the LogEC50 was -6.9 log M.
